According to the supplement of paper PMC10724198:
± gives the standard deviation of the averaged measurements.

Test system: Saccharomyces cerevisiae
Assay: protein stability index of tFT-peptide fusion (C-terminal peptide) (PSI (0-1 scale)); higher = more stable (slower turnover)
Details: genetic background: wild type; temperature: 30 C
Method: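 Multiplexed protein stability (MPS) profiling in S. cerevisiae. Random 12-aa peptides (tFT-X12 library) are fused to the C-terminus of a sfGFP-mCherry tandem fluorescent timer, after mCherry and a GGGS linker. Cells are FACS-sorted into 8 mCherry/sfGFP bins and deep-sequenced. The protein stability index (PSI) is the read-weighted bin average, scaled from 0 (unstable) to 1 (stable). Only peptides with >10 reads are reported; cells were grown at 30 °C in SC-His with glucose.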
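Also: PSI is a weighted mean of sequencing reads over stability bins, variants kept only with over 10 reads, mCherry proximal and sfGFP distal, peptide attached via GGGS linker.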

Sequence | protein stability index
LYLCFDVVKDLG | 0.582 ± 0.015
KKMMQNKKQTEI | 0.727 ± 0.036
VRSSELFNGVWC | 0.736 ± 0.093
EQSLRHKCRPSV | 0.596 ± 0.014
PGLNHLTPMLPP | 0.635 ± 0.038
ILDNWQFSYIKD | 0.713 ± 0.051
SIECSLCYSLFD | 0.663 ± 0.032
SLCHLFYGSVEG | 0.668 ± 0.055
NLGLSGRYAPCK | 0.689 ± 0.0072
RRRTDDSTPGRA | 0.686 ± 0.025
RILLSPLSQSQP | 0.695 ± 0.025
SPSLVVRVSFEF | 0.595 ± 0.025
HDRIHWDLDLSE | 0.617 ± 0.041
DWAGGKMESVYR | 0.66 ± 0.011
PDAGTSSLQTLT | 0.722 ± 0.036
YIRSKPASDQFA | 0.7093 ± 0.00062
TPPLHSPFLFPP | 0.671 ± 0.049
WYITVMSHFNET | 0.753 ± 0.009
SAPEPTISKLLP | 0.603 ± 0.027
QQLPPARLPRRP | 0.745 ± 0.012
RAGSLRFRVILY | 0.635 ± 0.026
PPPQLRPLPQSL | 0.704 ± 0.018
EGLTYIPCQTDC | 0.812 ± 0.028
SCFTSLLGRRDG | 0.784 ± 0.12
VHFGVLSLGKRH | 0.769 ± 0.16

Sequence | protein stability index
VTSSIQNRCTSC | 0.706 ± 0.076
WATPRPCQMVPS | 0.567 ± 0.038
AVPLFRSVSRTS | 0.667 ± 0.11
CSFFNSFPVFWL | 0.7 ± 0.014
QKKKKTTVKKRQ | 0.671 ± 0.021
PQTYHRPPPPLH | 0.702 ± 0.028
FSLLPYFPYALP | 0.739 ± 0.089
QKHGARISSQKK | 0.703 ± 0.012
DIKAISVKYTIQ | 0.6127 ± 0.0056
IGGDLGRDSTCL | 0.592 ± 0.11
FPTSRAGSLIRR | 0.678 ± 0.053
GIHFKIHKSSSN | 0.647 ± 0.013
PRPPPLPPQTSS | 0.73 ± 0.1
VAGGGGGCLVDC | 0.646 ± 0.022
RPSNPPTKSQPS | 0.665 ± 0.019
LNGSRDEHKVMS | 0.674 ± 0.022
YSLYVHPPNLYQ | 0.6604 ± 0.0015
FPYPFSSSCFSS | 0.651 ± 0.062
DVVDGCGGRYGW | 0.687 ± 0.029
SSLLFVMSYGLL | 0.661 ± 0.027
LLGRPILINRPL | 0.661 ± 0.0083
KKKNKEQTKKTK | 0.719 ± 0.024
RKKGKLESKKQK | 0.742 ± 0.12
GLRLHVQCFGRV | 0.699 ± 0.024
VRAWIGDVENGV | 0.574 ± 0.058

Sequence | protein stability index
PPSRDSHPPPPP | 0.627 ± 0.02
VRFSVKPAFVRV | 0.577 ± 0.032
QPYHSSPSPRTI | 0.717 ± 0.073
GMGWGTVGDING | 0.709 ± 0.024
EKKNMRYKTVEI | 0.668 ± 0.066
FTCRRYVGFMGG | 0.798 ± 0.025
GSLCAVWWCWRG | 0.6372 ± 0.0052
KKKQMREQPKNE | 0.7315 ± 0.0047
KKKKNKKNKKQY | 0.676 ± 0.074
SHPLFLPALSPP | 0.721 ± 0.061
QFSRSFHSLPPT | 0.683 ± 0.022
FDSGLTTHQRDA | 0.686 ± 0.029
CHNVIEKIRNNK | 0.657 ± 0.1
SPYLGTYAPVIK | 0.6804 ± 0.0032
SCRAIIDCMYNT | 0.611 ± 0.067
ESYGIVEEGVYS | 0.652 ± 0.082
SAMIKRIIGMHY | 0.634 ± 0.048
LGFDRGGGGAGM | 0.675 ± 0.062
KCKLLKIMKKKE | 0.636 ± 0.13
LSLPRCPKGVAH | 0.672 ± 0.055
PLPPHPPPPRPL | 0.698 ± 0.035
SPPPPRLPSPTP | 0.744 ± 0.054
YLAYHVAAPGPV | 0.686 ± 0.015
HRQAFSAVPCIH | 0.588 ± 0.042
SRFSPSLPPFLP | 0.661 ± 0.055

Sequence | protein stability index
FPLSLSFLSPLV | 0.705 ± 0.12
ICVYGGRKISPG | 0.6877 ± 0.00097
VSRGGAVRLSTQ | 0.7027 ± 0.0027
PPHIIPHPKAHT | 0.687 ± 0.017
LLHYPHVPLSPI | 0.662 ± 0.021
IRSRSVTKYGWS | 0.606 ± 0.025
GGVASGGCFWGR | 0.6761 ± 0.0053
GREREKGGKRIE | 0.629 ± 0.047
RMIQKFGLGVVV | 0.5613 ± 0.0047
RLRSWLGIALFL | 0.642 ± 0.0067
EGEVGGRWCGRG | 0.676 ± 0.046
LGFYGSYGRWWV | 0.779 ± 0.085
WGRRVSPVRDGR | 0.671 ± 0.032
RSLVAATLSSLG | 0.735 ± 0.045
PTYTPAFPPVSS | 0.699 ± 0.018
RVKMEFGRYRIF | 0.52266 ± 0.0005
PFPPPSTPASLY | 0.772 ± 0.11
GQGSSRKSTSVK | 0.7114 ± 0.0041
VCAVAQPCRVQL | 0.683 ± 0.025
IRLSVPGLTCVS | 0.504 ± 0.0031
RNIKIGKYMKRI | 0.729 ± 0.034
PLRPLPTPRPPP | 0.686 ± 0.0071
PPSPTPPLPSCP | 0.702 ± 0.029
LLVPCLQPPFRV | 0.622 ± 0.023
AGHACGSLRGHP | 0.682 ± 0.034

Sequence | protein stability index
GGGGRAALRWYG | 0.651 ± 0.014
RPCSVPFSNTSP | 0.666 ± 0.0067
WVGAGGGSGYGR | 0.677 ± 0.018
PPPPPPSPLPPY | 0.703 ± 0.01
VYRRGESRTHGD | 0.682 ± 0.018
SPLPPPPPVPLP | 0.652 ± 0.082
PPPPCPSYLPPS | 0.693 ± 0.046
GDGNERPLGRRD | 0.643 ± 0.052
SPPARLLASLSP | 0.798 ± 0.2
PSPMHPSAHFST | 0.67613 ± 0.00039
FELVEAAYISEE | 0.626 ± 0.058
CCVVFMGLGGGR | 0.673 ± 0.0085
PSNDNTMIPILE | 0.656 ± 0.04
HAEREDTESQTR | 0.714 ± 0.05
PPFRPFTSPVTY | 0.579 ± 0.031
SNIEKKKTIKRK | 0.6929 ± 0.0069
RAITPRHKRLVG | 0.6934 ± 0.0031
PPPRPLPVLFLP | 0.611 ± 0.06
VLSFFQCSWVLL | 0.574 ± 0.057
PAPSPPPPRPLP | 0.716 ± 0.1
LGCGDSRSMVSL | 0.6875 ± 0.0033
VWVQISGRLNWK | 0.709 ± 0.06
GRCGRFVGAAWG | 0.741 ± 0.17
GGRGFRGVLRSN | 0.696 ± 0.069
PHPRRSTKTQRR | 0.7878 ± 0.0045

Sequence | protein stability index
VRPRSSSQRPTP | 0.689 ± 0.011
RGGGRGGSRTGA | 0.712 ± 0.033
YVFPYLLRAIPF | 0.601 ± 0.095
PSPPAQSASLFF | 0.663 ± 0.02
KRRIGKYEERME | 0.661 ± 0.022
LLSVSFVGWPLT | 0.634 ± 0.062
GAENPRRLRART | 0.691 ± 0.0079
PRLLPFPPPLDH | 0.735 ± 0.083
PPPPPPPPPLLP | 0.7031 ± 0.006
GIKTRTTRVRGE | 0.706 ± 0.018
PPPPLPASHPSP | 0.707 ± 0.044
YASLSGSRYRPG | 0.62 ± 0.051
GGGEYHTIMRTT | 0.786 ± 0.2
PPFVLLVPTSLS | 0.68 ± 0.018
CLICLRSRMGDC | 0.642 ± 0.024
GLSGSPIPFIRL | 0.731 ± 0.021
CMFPVSHRLLYL | 0.615 ± 0.047
FGCLGVLGSGRC | 0.728 ± 0.037
VGDGQGGGGQGG | 0.661 ± 0.022
KRKKNTRENGED | 0.778 ± 0.022
HYFRSIFLFVVR | 0.506 ± 0.017
RFGDWALGARVG | 0.72 ± 0.032
FLSRFLSCLFYF | 0.576 ± 0.028
PPLPAPSPPAPP | 0.68 ± 0.022
ELSPLSYRNRTA | 0.6835 ± 0.001

Sequence | protein stability index
TSNGSGLMFQSQ | 0.62 ± 0.019
DMAPNSQKGRAL | 0.668 ± 0.028
GGGEVLFHLRRA | 0.673 ± 0.019
SGGRTSRREGGR | 0.643 ± 0.075
PPPSTRSNPGLD | 0.745 ± 0.028
SIVLRNRSGDIL | 0.63 ± 0.061
PPHGPPPLPPPS | 0.678 ± 0.15
INSKTRIQVTEN | 0.73 ± 0.035
IVSPGSLAGCSV | 0.675 ± 0.034
GGCCLWVGFLGG | 0.7016 ± 0.0021
DDQLACSHDIDS | 0.643 ± 0.019
FFFLPSPTFLPP | 0.764 ± 0.046
PLCVICRRWGAS | 0.646 ± 0.046
GGGGGGIGVGMG | 0.705 ± 0.024
GINRLRNKEKEE | 0.775 ± 0.073
PPSRPPAPSPRS | 0.695 ± 0.037
HLSWFSPFFASG | 0.772 ± 0.018
GGGGGMEPGCGP | 0.682 ± 0.043
PPTAPCPPPLPP | 0.645 ± 0.012
STKGAIKVEECI | 0.636 ± 0.023
SNQHKKKNQLRE | 0.693 ± 0.086
GPCSLVSLFAGD | 0.697 ± 0.017
VFTCTGVLFGGM | 0.768 ± 0.12
SLVVSPRQLLPR | 0.704 ± 0.029
ETVNGVGSRWGF | 0.741 ± 0.1

Sequence | protein stability index
PLAPPSPPPAPP | 0.6618 ± 0.00085
RPEKGLESGQRV | 0.69 ± 0.064
PGCGRKSAFGLT | 0.699 ± 0.037
GHYLLCPQGQSD | 0.6675 ± 0.0024
KQFKFPLRVIRA | 0.519 ± 0.024
SPPLRTFPVTLP | 0.644 ± 0.1
RTTSFVLSYRRE | 0.66 ± 0.019
LGVGGRWGGPGA | 0.691 ± 0.059
LLSLLLLSSSPP | 0.70828 ± 0.00034
PRPPAPPDPAPP | 0.746 ± 0.072
FPLGRCPHIPPH | 0.664 ± 0.013
LPTATSFNALNS | 0.714 ± 0.072
TFSVNLGAASAK | 0.662 ± 0.042
LFRLRLFPHPHF | 0.645 ± 0.087
PVGDWPRGKGAD | 0.684 ± 0.13
KEYRTKNNKGRK | 0.654 ± 0.11
SSPVDPLRPPAP | 0.704 ± 0.013
MKRQQENNAPGR | 0.616 ± 0.018
GVGRGCVLNGGG | 0.743 ± 0.018
DVNSNYNVGEQR | 0.64 ± 0.012
SYGSLFCSHLDG | 0.6828 ± 0.0014
